{
  "source": "patent JP2018150260A",
  "about": "(dated 2018)",
  "binders": {"B1": {"name": "PA 11-9.4モノクローナル抗体 (antibody, V domains shown)", "VH": "AEFVKPGASVKLSCIASGFNIKDTYMYWVKQRPEQGLEWIGRIDPANGNTKYDPKFQGKATITTDTSSNTAYLQVSSLTSEDTAVYYCAYRYDYYFDYWGQGTTLTVSS", "VL": "not shown", "notes": "also called PA 11-9.4 抗体"}},
  "biological_target": "T1, myc3 タグ融合 PB1 サブユニット(1aa-81aa), expressed in 293T cells (influenza virus H1N1, UniProt P03431 1-81)",
  "T1 construct": "range 1-81",
  "T1 sequence (P03431 1-81)": "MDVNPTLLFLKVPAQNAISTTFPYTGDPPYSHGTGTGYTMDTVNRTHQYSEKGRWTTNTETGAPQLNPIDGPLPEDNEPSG",
  "experiment": "Western blot of 293T lysate (denatured protein)",
  "data": [
    {"binder": "B1", "values": [
      {"measurement": "binding result", "result": "no binding"}
    ]}
  ]
}
